# B1: 16D10: IgM monoclonal antibody recognizing FAPP/BSDL; producing cells deposited with the CNCM under the number I-3188 (antibody, listed as Mus musculus, V domains shown)
# VH: QVQLQQSDAELVKPGASVKISCKASGYTFTDHAIHWVKQKPEQGLEWIGYISPGNDVIKFNEKFKGKATLTADKSSSTAYMQLNSLTSEDSAVYFCKRSEGGVFDYWGQGTTLTVS
# VL: NIMMTQSPSSLAVSAGEKVTMSCKSSQSVLYSSNQKNFLAWYQQKPGQSPKLLIYWASTRESGVPDRFTGSGSGTDFTLTISSVQAEDLAVYYCHQYLSSYTFGGGTKLEIK
# Key:
# Type in all cases: cell-based, human
# [1] = test system: Bcl-2, Bax, caspases 8 and 9, PARP in SOJ-6 cells; test: SDS-PAGE and western blot of apoptosis proteins; settings: SOJ-6 cells, 24 h
# Description: (§1) SOJ-6 cells were grown in 6-well culture plates in RPMI 1640 medium with 10% FCS. At subconfluency, the medium was removed and replaced for 24 hours by fresh RPMI medium with 10% inactivated FCS. SOJ-6 cells were then incubated with mAb16D10 or Cisplatin for 24 hours. At the end of incubation, cells were washed three times with ice-cold PBS (without […] and Mg^++) harvested and pelleted by centrifugation. Pellets were washed twice and lysed at 4° C. in 0.5 ml of lysis buffer (10 mM Tris-HCl pH 7.4, 150 mM NaCl, 1% Triton X-100, 1 mM benzamidine and phosphatase inhibitors). After lysis, homogenates were clarified by centrifugation at 10,000 g for 10 min at 4° C. An aliquot was saved for protein determination using the bicinchoninic acid assay (Pierce, Rockford, Ill.). Proteins (50 μg/lane) in reducing SDS buffer were separated onto 10, 12, or 15% polyacrylamide with 0.1% SDS (according to the molecular weight range of proteins to be separated). After electrophoretic migration, proteins were silver stained. Alternatively, proteins were transferred onto nitrocellulose membranes using a Mini Transblot electrophoretic cell (BioRad, Hercule, Oreg.), and transferred proteins were immunodetected by using appropriate primary and secondary antibodies. After washes, membranes were developed with a chemoluminescent substrate according to the manufacturer's instructions (Roche Diagnostics, Switzerland). In each experiment, a control was included by omitting primary antibodies or by using a non-immune serum.
# [2] = test system: SOJ-6 cells; test: MTT cell growth and proliferation assay, SOJ-6; settings: SOJ-6, increasing concentrations of antibody, 24 h
# Description: (§2) Cell proliferation was determined using MTT assay as previously described (Mosmann et al., 1983 J Immunol Methods, 65(1-2):55-63). Briefly, cells were seeded at subconfluence in appropriate complete media containing 10% FCS in 96-well culture plates. Media were replaced for 24 h by fresh media with 10% inactivated FCS, including increasing concentrations of antibodies directed against FAPP (pAbL64, mAbJ28 and mAb16D10). Cells were washed with PBS and incubated with 100 μl of MTT (0.5 mg/ml) in complete media for 3 h, washed with PBS and finally incubated with DMSO for 30 min at 37° C. Cell growth was determined by measuring absorbance at 550 nm using a MR 5000 microplate spectrophotometer. All independent determinations were done in triplicate and compared to control.
# [3] = test system: PANC-1 cells; test: MTT cell growth and proliferation assay, PANC-1; settings: PANC-1, increasing concentrations of antibody, 24 h
# Description: as §2
# [4] = test system: E-cadherin, β-catenin in SOJ-6 cells; test: Immunoblotting and immunofluorescence of E-cadherin/β-catenin complex, SOJ-6
# Description: as §1
# These molecules might confer to these lipid raft domains the role of signalling. Immunoblottings were performed to examine the expression of E-cadherin and of β-catenin by pancreatic tumoral cells.
# Several studies have shown that, in the absence of Wnt signalling, the phosphorylation of residues of β-catenin addressed this protein to degradation by the ubiquitin-dependent proteasome pathway (Aberle et al., 1997 EMBO J. 16(13): 3797-804 and Orford et al., 1997 Biol. Chem. 272(40): 24735-8). […] Furthermore, β-catenin may be regulated by GSK-3β, which itself is activated in cells once treated with mAb16D10 (FIG. 11). […] Lastly, we wanted to determine whether the association of E-cadherin, β-catenin, and 16D10 antigen in the rafts microdomains is required for mAb16D10 to induce apoptosis (FIG. 13).
# [5] = test system: SOJ-6 cells; test: Effect of antibodies on SOJ-6 cell proliferation (Example 11)
# Description: The effects of the IgM antibody 16D10 and the chimeric antibody rec16D10 on the proliferation of SOJ-6 cells were examined. Cells were incubated in culture with no antibodies, with various amounts of 16D10 or rec16D10 antibodies, or with an irrelevant IgG antibody. Antibody 16D10 reduced cell proliferation by approximately 50% at either 25 or 50 μg/ml, while rec16D10 reduced proliferation by more than 20% and more than 35% at 25 and 50 μg/ml, respectively (FIG. 18).
# [6] = test system: SOJ-6 cells; test: Annexin V / PI apoptosis assay; settings: antibodies 20 μg/ml, tunicamycin 25 or 50 μg/ml
# Description: SOJ-6 cells (20.10^4 cells per well) were seeded onto 24 wells plates 72H before to start the experiment. Cells were incubated either with 20 μg/ml 16D10 IgM, or 20 μg/ml of a further recombinant 16D10 IgG1 antibody which contained the 16D10 variable regions linked fused to a human IgG1 constant region and human kappa light region for the heavy and light chains respectively, 25 μg/ml Tunicamycin or 50 μg/ml Tunicamycin. The AnnexinV/PI stainings were performed after 24H of culture using the AnnexinV-FITC Apoptosis Detection Kit I (BD Pharmingen) according to the manufacturer instructions. Stainings were acquired on a FACScan (Becton Dickinson, San Jose, Calif.) and results were analysed using FlowJo Software.
molecule,measurement,setting,value
B1,Bax protein level,[1],increase of Bax protein
same,anti-apoptotic protein Bcl-2 level,[1],decrease of the anti-apoptotic protein Bcl-2
same,"mediators of induced apoptosis (caspases, PARP cleavage)",[1],"mediated via caspases 8 and 9, and poly-ADP ribose polymerase (PARP) cleavage"
same,% growth of cells,[2],does cause a decrease in SOJ-6 cells
same,% growth of cells,[3],unable to cause a decrease in growth or number of PANC-1 cells
same,phosphorylation of β-catenin,[4]; SOJ-6,phosphorylated
same,expression of β-catenin,"[4]; SOJ-6, 25 μg/ml, 24 h",did not induce a significant change in the expression of β-catenin
same,E-cadherin protein expression,"[4]; SOJ-6, 25 μg/ml, 24 h, versus irrelevant IgM",high E-cadherin protein expression
same,localization of β-catenin,"[4]; SOJ-6, fluorescence microscopy, plasma membrane in untreated cells",found in the cytosolic compartment
same,reduction of SOJ-6 cell proliferation,[5]; 25 μg/ml,approximately 50%
same,reduction of SOJ-6 cell proliferation,[5]; 50 μg/ml,approximately 50%
same,apoptosis by Annexin V and Annexin V/PI staining,[6],induced significant levels of apoptosis
